Laboratory results reported in publication PMC11939848, “Aptamer-Based Graphene Field-Effect Transistor Biosensor for Cytokine Detection in Undiluted Physiological Media for Cervical Carcinoma Diagnosis”.

What was measured:
IL-6 [1] = molecular target: T1, IL-6 (UniProt P05231 30-212); test: graphene FET (Hill-Langmuir fit); 2000 Da PEG, PBS; 1x PBS, artificial sweat (10x diluted or undiluted) or undiluted lavage fluid; aptamer immobilized on graphene; pH and temperature not stated; settings: protein: commercial
T1 sequence (P05231 30-212): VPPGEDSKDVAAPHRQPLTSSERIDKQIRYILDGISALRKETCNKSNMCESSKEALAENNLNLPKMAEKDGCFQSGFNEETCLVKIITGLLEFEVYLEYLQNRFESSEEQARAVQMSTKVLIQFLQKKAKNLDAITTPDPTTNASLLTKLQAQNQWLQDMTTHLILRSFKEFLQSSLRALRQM

IL-6 [2] = molecular target: T1, IL-6; test: graphene FET (Hill-Langmuir fit); 1000 Da PEG, PBS; 1x PBS, artificial sweat (10x diluted or undiluted) or undiluted lavage fluid; aptamer immobilized on graphene; pH and temperature not stated; settings: protein: commercial
IL-6 [3] = molecular target: T1, IL-6; test: graphene FET (Hill-Langmuir fit); 2000 Da PEG, undiluted lavage fluid; 1x PBS, artificial sweat (10x diluted or undiluted) or undiluted lavage fluid; aptamer immobilized on graphene; pH and temperature not stated; settings: protein: commercial
IL-6 [4] = molecular target: T1, IL-6; test: graphene FET (Hill-Langmuir fit); 1000 Da PEG, undiluted lavage fluid; 1x PBS, artificial sweat (10x diluted or undiluted) or undiluted lavage fluid; aptamer immobilized on graphene; pH and temperature not stated; settings: protein: commercial
TNF-alpha [5] = molecular target: T2, TNF-alpha (UniProt P01375 77-233); test: graphene FET (Hill-Langmuir fit); 1000 Da PEG, 1x PBS; 1x PBS, artificial sweat (10x diluted or undiluted) or undiluted lavage fluid; aptamer immobilized on graphene; pH and temperature not stated; settings: protein: commercial; chain copies: 3; G-quadruplex, two G-tetrads
T2 sequence (P01375 77-233): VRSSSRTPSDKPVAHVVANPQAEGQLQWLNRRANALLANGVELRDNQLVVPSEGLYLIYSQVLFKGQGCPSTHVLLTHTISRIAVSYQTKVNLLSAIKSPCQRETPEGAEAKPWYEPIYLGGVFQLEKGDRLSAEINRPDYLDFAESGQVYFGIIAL

TNF-alpha [6] = molecular target: T2, TNF-alpha; test: graphene FET (Hill-Langmuir fit); no PEG, 1x PBS; 1x PBS, artificial sweat (10x diluted or undiluted) or undiluted lavage fluid; aptamer immobilized on graphene; pH and temperature not stated; settings: protein: commercial; chain copies: 3; G-quadruplex, two G-tetrads
TNF-alpha [7] = molecular target: T2, TNF-alpha; test: graphene FET (Hill-Langmuir fit); 2000 Da PEG, 1x PBS; 1x PBS, artificial sweat (10x diluted or undiluted) or undiluted lavage fluid; aptamer immobilized on graphene; pH and temperature not stated; settings: protein: commercial; chain copies: 3; G-quadruplex, two G-tetrads

B1: IL-6 aptamer (ssDNA)
DNA: GGTGGCAGGAGGACTATTTATTTGCTTTTCT
modifications: 5'-NH2
Kd (IL-6 [1]): 0.188 ± 0.052 nM | Kd (IL-6 [2]): 0.084 ± 0.023 nM | Kd (IL-6 [3]): 0.194 ± 0.023 nM | Kd (IL-6 [4]): 0.57 ± 0.096 nM

B2: TNF-alpha aptamer (ssDNA)
DNA: TGGTGGATGGCGCAGTCGGCGACAA
modifications: 5'-NH2
Kd (TNF-alpha [5]): 1.52 ± 0.35 nM | Kd (TNF-alpha [6]): 2.82 ± 0.19 nM | Kd (TNF-alpha [7]): 1.21 ± 0.44 nM
